This assay has as its target Aβ42 wild-type (UniProt P05067). Kind of assay: fluorescence correlation spectroscopy (FCS); oligomers formed from S8C-Alexa488 and WT Aβ42 monomers 1:1.5 (labeled/unlabeled), about 10 μM total, 37 °C, stopped at t1/2; fibrils removed by centrifugation, oligomeric fraction isolated on Superdex 75; measured alone (three replicates) or with unlabeled WT fibrils (six replicates) 3-7 min after start, 37 °C, 20 mM sodium phosphate, 0.2 mM EDTA, pH 8.0; three-component fit (free dye, monomer, oligomer).

In the case of Alexa-488-labeled Aβ42-S8C (peptide), the oligomer dissociation half-life (in the presence of unlabeled WT fibrils) is under 7 min and the stoichiometry N amounted to 37 monomers.

Values taken from PMC11157482.
